For the assay, the target named is T1, purified recombinant STIL (human, UniProt Q15468 1-1287).
T1 sequence (looked up): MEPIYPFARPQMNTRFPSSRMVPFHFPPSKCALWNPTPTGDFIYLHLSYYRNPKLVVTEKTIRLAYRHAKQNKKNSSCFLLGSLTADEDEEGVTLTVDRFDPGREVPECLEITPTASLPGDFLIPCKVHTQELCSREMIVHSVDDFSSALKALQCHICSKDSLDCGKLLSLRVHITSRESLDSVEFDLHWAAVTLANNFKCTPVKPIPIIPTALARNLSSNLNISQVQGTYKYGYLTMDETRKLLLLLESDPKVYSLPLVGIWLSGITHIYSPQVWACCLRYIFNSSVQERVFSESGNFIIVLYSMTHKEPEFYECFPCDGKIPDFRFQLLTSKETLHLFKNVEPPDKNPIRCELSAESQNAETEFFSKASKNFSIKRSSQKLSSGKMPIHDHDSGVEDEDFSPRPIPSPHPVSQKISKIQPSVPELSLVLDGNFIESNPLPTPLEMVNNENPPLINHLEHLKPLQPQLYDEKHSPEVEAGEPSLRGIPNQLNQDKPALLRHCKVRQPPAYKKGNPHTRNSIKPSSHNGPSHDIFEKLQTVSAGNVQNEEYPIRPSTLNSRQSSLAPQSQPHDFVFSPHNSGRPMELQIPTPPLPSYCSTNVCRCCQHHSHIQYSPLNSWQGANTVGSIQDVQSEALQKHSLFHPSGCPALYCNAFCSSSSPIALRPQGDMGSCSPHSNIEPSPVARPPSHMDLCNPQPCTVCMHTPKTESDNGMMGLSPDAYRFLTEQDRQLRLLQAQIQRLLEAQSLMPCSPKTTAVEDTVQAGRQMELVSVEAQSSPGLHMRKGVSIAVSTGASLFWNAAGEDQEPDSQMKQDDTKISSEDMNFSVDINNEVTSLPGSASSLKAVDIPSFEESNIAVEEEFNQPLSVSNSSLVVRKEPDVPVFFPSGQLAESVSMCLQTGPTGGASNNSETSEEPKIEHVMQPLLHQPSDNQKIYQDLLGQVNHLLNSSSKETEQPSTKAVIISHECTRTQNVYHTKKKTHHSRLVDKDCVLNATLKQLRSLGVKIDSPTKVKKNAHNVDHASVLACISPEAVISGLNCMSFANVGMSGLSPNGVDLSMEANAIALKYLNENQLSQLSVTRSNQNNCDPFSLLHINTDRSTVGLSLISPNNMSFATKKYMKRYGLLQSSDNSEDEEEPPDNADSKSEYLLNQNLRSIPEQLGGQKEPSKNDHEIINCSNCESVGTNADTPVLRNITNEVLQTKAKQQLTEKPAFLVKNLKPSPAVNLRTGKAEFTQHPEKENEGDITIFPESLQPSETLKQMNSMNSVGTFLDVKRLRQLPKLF
Kind of assay: pull-down.

B1: GST-hPlk4 (enzyme, human, UniProt O00444 1-970, looked up)
chain: MATCIGEKIEDFKVGNLLGKGSFAGVYRAESIHTGLEVAIKMIDKKAMYKAGMVQRVQNEVKIHCQLKHPSILELYNYFEDSNYVYLVLEMCHNGEMNRYLKNRVKPFSENEARHFMHQIITGMLYLHSHGILHRDLTLSNLLLTRNMNIKIADFGLATQLKMPHEKHYTLCGTPNYISPEIATRSAHGLESDVWSLGCMFYTLLIGRPPFDTDTVKNTLNKVVLADYEMPSFLSIEAKDLIHQLLRRNPADRLSLSSVLDHPFMSRNSSTKSKDLGTVEDSIDSGHATISTAITASSSTSISGSLFDKRRLLIGQPLPNKMTVFPKNKSSTDFSSSGDGNSFYTQWGNQETSNSGRGRVIQDAEERPHSRYLRRAYSSDRSGTSNSQSQAKTYTMERCHSAEMLSVSKRSGGGENEERYSPTDNNANIFNFFKEKTSSSSGSFERPDNNQALSNHLCPGKTPFPFADPTPQTETVQQWFGNLQINAHLRKTTEYDSISPNRDFQGHPDLQKDTSKNAWTDTKVKKNSDASDNAHSVKQQNTMKYMTALHSKPEIIQQECVFGSDPLSEQSKTRGMEPPWGYQNRTLRSITSPLVAHRLKPIRQKTKKAVVSILDSEEVCVELVKEYASQEYVKEVLQISSDGNTITIYYPNGGRGFPLADRPPSPTDNISRYSFDNLPEKYWRKYQYASRFVQLVRSKSPKITYFTRYAKCILMENSPGADFEVWFYDGVKIHKTEDFIQVIEKTGKSYTLKSESEVNSLKEEIKMYMDHANEGHRICLALESIISEEERKTRSAPFFPIIIGRKPGSTSSPKALSPPPSVDSNYPTRERASFNRMVMHSAASPTQAPILNPSMVTNEGLGLTTTASGTDISSNSLKDCLPKSAQLLKSVFVKNVGWATQLTSGAVWVQFNDGSQLVVQAGVSSISYTSPNGQTTRYGENEKLPDYIKQKLQCLSSILLMFSNPTPNFH
On to B1, for which the binding result is “binds”.
